Common to all, as to assay: cell-based or functional assay
The target of experiment [1] is human EGFR, full length (human) (UniProt P00533).
For experiment [2], the target named is human HER3 (ErbB-3) on BxPC-3 cells (human) (UniProt P21860).
In experiment [3] the target is human EGFR, full length (human) (UniProt P00533). This is another data set of the same source.
Experiment [4] deals with human HER3 (ErbB-3) on BxPC-3 cells (human) (UniProt P21860). This is another data set of the same source.

Where two headings read alike, the source gives them in different places.

B1: MEHD7945A (antibody, INN chains, looked up, V domains shown)
VH: EVQLVESGGGLVQPGGSLRLSCAASGFTLSGDWIHWVRQAPGKGLEWVGEISAAGGYTDYADSVKGRFTISADTSKNTAYLQMNSLRAEDTAVYYCARESRVSFEAAMDYWGQGTLVTVSS
VL: DIQMTQSPSSLSASVGDRVTITCRASQNIATDVAWYQQKPGKAPKLLIYSASFLYSGVPSRFSGSGSGTDFTLTISSLQPEDFATYYCQQSEPEPYTFGQGTKVEIK
For B1, the IC50 for BxPC-3 ligand-driven cell proliferation inhibition (pM) in experiment [1] is 260 pM; in experiment [2], 260 pM; in experiment [3], 287 pM; in experiment [4], 287 pM.

The values are drawn from patent US10844127.
